In patent publication US20090012261A1, “HLA Epitope Identification” (priority 2007, published 2009):

Biological target: T1, TAP (Homo sapiens, UniProt Q03518+Q03519)
T1 sequence (Q03518 1-748): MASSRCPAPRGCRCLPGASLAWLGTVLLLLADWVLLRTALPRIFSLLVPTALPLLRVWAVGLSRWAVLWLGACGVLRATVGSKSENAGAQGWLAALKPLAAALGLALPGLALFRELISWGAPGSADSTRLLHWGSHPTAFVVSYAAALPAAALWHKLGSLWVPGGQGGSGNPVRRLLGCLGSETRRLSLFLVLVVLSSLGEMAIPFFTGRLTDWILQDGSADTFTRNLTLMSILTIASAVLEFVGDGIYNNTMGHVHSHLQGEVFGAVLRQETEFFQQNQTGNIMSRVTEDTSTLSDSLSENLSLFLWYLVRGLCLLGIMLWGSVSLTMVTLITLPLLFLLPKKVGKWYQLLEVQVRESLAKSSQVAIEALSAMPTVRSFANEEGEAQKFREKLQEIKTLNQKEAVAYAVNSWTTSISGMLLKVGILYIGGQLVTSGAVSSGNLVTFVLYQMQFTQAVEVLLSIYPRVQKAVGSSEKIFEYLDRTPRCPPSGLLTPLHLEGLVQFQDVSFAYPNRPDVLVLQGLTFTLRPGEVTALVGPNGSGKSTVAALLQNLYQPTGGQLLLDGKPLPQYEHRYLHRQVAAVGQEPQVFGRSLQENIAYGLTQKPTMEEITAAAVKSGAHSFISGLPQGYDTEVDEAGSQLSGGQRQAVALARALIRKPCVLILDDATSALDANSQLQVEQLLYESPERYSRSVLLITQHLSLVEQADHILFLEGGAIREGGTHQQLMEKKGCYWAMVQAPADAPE
T1 sequence (Q03519 1-686): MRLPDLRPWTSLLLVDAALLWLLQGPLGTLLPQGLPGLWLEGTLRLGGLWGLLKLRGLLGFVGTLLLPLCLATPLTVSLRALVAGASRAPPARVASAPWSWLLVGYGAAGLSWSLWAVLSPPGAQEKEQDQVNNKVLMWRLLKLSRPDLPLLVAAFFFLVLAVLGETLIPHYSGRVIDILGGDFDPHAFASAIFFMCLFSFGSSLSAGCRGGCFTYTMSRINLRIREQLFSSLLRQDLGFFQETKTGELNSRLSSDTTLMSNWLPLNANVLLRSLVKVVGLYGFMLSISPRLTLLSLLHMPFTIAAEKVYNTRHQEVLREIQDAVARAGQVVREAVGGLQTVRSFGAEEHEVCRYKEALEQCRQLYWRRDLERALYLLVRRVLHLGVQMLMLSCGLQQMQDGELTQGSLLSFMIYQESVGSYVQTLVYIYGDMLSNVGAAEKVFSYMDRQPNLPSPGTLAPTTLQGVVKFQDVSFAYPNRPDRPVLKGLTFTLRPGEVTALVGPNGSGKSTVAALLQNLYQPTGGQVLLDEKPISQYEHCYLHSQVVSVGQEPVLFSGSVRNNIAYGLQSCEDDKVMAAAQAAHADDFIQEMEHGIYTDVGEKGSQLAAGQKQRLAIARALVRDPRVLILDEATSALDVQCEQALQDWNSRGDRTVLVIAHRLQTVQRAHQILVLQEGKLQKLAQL
Assay: TAP affinity prediction (consensus scoring, log IC50)
Design: unit not given here
Settings: variant versus RK9
Protocol: TAP affinity prediction: Predicting the TAP affinity, and therefore the TAP transport efficiency, was performed using the consensus scoring methods described by Peters et al. (49). The TAP affinity score is the sum of the matrix elements of the C-terminus and three N-terminal residues, for any arbitrary length represented by log (IC50) values. […] A low TAP score corresponds to a peptide well suited for TAP binding, and a high TAP score corresponds to low TAP affinity.
A TAP affinity algorithm was used to determine TAP-peptide binding log IC50 scores (49) (Table 5) and predict TAP escape mutations.

Sequence | Increase of TAP log IC50 value versus RK9 (difference)
RLRPGGKKQ | 0.57
QLRPGGKKK | 1.81
